In one series the target is T1, AaL (Alicyclobacillus acidoterrestris, UniProt T0BMH6).
T1 construct: gene K1I37_05175; codon-optimized synthetic gene; N-terminal Strep tag (WSHPQFEK) + TEV site (ENLYFQS), tag cleaved with TEV; homodimer
T1 sequence (T0BMH6 1-282): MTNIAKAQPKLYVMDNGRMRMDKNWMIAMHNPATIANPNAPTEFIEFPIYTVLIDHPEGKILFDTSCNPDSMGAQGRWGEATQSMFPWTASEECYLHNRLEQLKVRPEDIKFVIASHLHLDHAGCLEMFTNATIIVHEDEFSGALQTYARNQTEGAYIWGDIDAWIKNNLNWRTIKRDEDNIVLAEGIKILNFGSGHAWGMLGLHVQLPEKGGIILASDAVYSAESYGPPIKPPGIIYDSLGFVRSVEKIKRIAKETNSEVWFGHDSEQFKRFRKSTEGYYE
The experiment in a line: X-ray crystal structure, […] Å, crystal soak. The class given is binding. As to conditions: soaked 10 min with 20 mM C6-AHL; active site, two cobalt cations; modelled occupancy 0.7.

Substrate in series [1]: CCCC1CCC(=O)O1
The experiment in a line: purified protein. As to conditions: 2.5 mM Bicine pH 8.3, 150 mM NaCl, 0.2 mM cresol purple, 0.5% DMSO, 0.2 mM CoCl2, room temperature. The class given is biochemical, Alicyclobacillus acidoterrestris.

Substrate in series [2]: CCCCCC1CCCC(=O)O1
The experiment in a line: purified protein. The class given is biochemical, Alicyclobacillus acidoterrestris. As to conditions: 2.5 mM Bicine pH 8.3, 150 mM NaCl, 0.2 mM cresol purple, 0.5% DMSO, 0.2 mM CoCl2, room temperature.

Substrate in series [3]: O=C1CCCCO1
The experiment in a line: purified protein. The class given is biochemical, Alicyclobacillus acidoterrestris. As to conditions: 2.5 mM Bicine pH 8.3, 150 mM NaCl, 0.2 mM cresol purple, 0.5% DMSO, 0.2 mM CoCl2, room temperature.

Substrate in series [4]: O=C1CCCO1
The experiment in a line: purified protein. As to conditions: 2.5 mM Bicine pH 8.3, 150 mM NaCl, 0.2 mM cresol purple, 0.5% DMSO, 0.2 mM CoCl2, room temperature. The class given is biochemical, Alicyclobacillus acidoterrestris.

`CCCCCC(=O)N[C@H]1CCOC1=O` [C6-AHL]: the “X-ray crystal structure, 1.8 Å, crystal soak” value on AaL is on record as “the structure of AaL bound to C6-AHL could be solved”.

B1: AaL (Alicyclobacillus acidoterrestris ATCC 49025) (protein)
chain: T1 sequence (T0BMH6 1-282)
notes: codon-optimized synthetic gene; N-terminal Strep tag (WSHPQFEK) + TEV site (ENLYFQS), tag cleaved with TEV; homodimer
B1: the Km in “purified protein [1]” is 36.9 ± 8.9 µM; in the series “purified protein [2]”, 18.5 ± 0.4 µM; in the series “purified protein [3]”, 18.7 ± 0.4 µM; in the series “purified protein [4]”, 171.0 ± 36.1 µM. In addition, the turnover number (kcat) worked out at 8.4 ± 0.6 s⁻¹ in “purified protein [2]”, 8.4 ± 0.4 s⁻¹ in “purified protein [3]” and 23.5 ± 1.7 s⁻¹ in the series “purified protein [4]”. Further, the catalytic efficiency (kcat/Km) in “purified protein [2]” stood at 450000 ± 100000 M⁻¹ s⁻¹; in the series “purified protein [3]”, 450000 ± 90000 M⁻¹ s⁻¹; in the series “purified protein [4]” it was 140000 ± 30000 M⁻¹ s⁻¹.
